From paper doi:10.1101/773283 (bioRxiv, 2020) come the findings set out here.

Several values for one entry are separate records, joined by “and”; a condition that tells them apart may be missing. Equal entries are not always repeated.

Data set [1] has as its target human vinculin D1 and D2 domains (D1D2) (human) (UniProt P18206). The experiment in a line: native gel or EMSA.
The target in data set [2] is cysteine-clamped vinculin D1D2 Q68C A396C (human) (UniProt P18206). The data set can be described thus: native gel or EMSA. On the technique in general: In EMSA bound probe runs differently from free probe, usually more slowly.
Data set [3] deals with human vinculin D1 subdomain (HV 1-258) (human) (UniProt P18206). The experiment in a line: native gel or EMSA.
Data set [4] addresses full-length human vinculin (HV) (human) (UniProt P18206). The data set can be described thus: ELISA. For orientation: ELISA stands for enzyme-linked immunosorbent assay.
Data set [5] deals with human vinculin D1 and D2 domains (D1D2) (human) (UniProt P18206). The data set can be described thus: SEC-MALS. (In general: SEC sorts molecules by how far they enter the pores of the column.)
For data set [6], the target named is human vinculin HV 1-834 containing the D1-D4 domains (human) (UniProt P18206). The experiment in a line: SEC-MALS.
For data set [7], the target named is human vinculin D1 subdomain (HV 1-258) (human) (UniProt P18206). The experiment in a line: SEC-MALS.
The data set “SEC-MALS” concerns the molecule itself. The experiment in a line: SEC-MALS.

On to “IpaA derivative containing VBS1-2 (A524) (from UniProt P18010 524-633) (domain or fragment)”, for which the stoichiometry N in data set [1], in data set [2] and in data set [3] was 1 each time. The molecule further gave an EC50 in data set [4] of 3.7 nM. Moreover, the stoichiometry N (D1D2 per A524) in data set [5] is 1 and 2.

Take “IpaA derivative containing VBS1-3 (A483) (from UniProt P18010 483-633) (domain or fragment)”: the stoichiometry N in data set [1] worked out at 1; in data set [2], 1; in data set [3], 1; in data set [7], 3 D1 per A483. For the same molecule, the stoichiometry N (A483 per D1D2) in data set [1] was 1 and 2. In data set [4], the EC50 turned out to be 6.1 nM. The stoichiometry N (D1D4 per A483) in data set [6] was 1 and 2. In data set [5], this molecule gave a stoichiometry N (D1D2 per A483) of 2.

In data set [5], “human vinculin D1 and D2 domains (D1D2) (from UniProt P18206-2 1-492) (domain or fragment)” yielded a stoichiometry N of 3.

B1: human vinculin HV 1-834 containing the D1-D4 domains (domain or fragment, UniProt P18206-2 1-834, looked up)
chain: MPVFHTRTIESILEPVAQQISHLVIMHEEGEVDGKAIPDLTAPVAAVQAAVSNLVRVGKETVQTTEDQILKRDMPPAFIKVENACTKLVQAAQMLQSDPYSVPARDYLIDGSRGILSGTSDLLLTFDEAEVRKIIRVCKGILEYLTVAEVVETMEDLVTYTKNLGPGMTKMAKMIDERQQELTHQEHRVMLVNSMNTVKELLPVLISAMKIFVTTKNSKNQGIEEALKNRNFTVEKMSAEINEIIRVLQLTSWDEDAWASKDTEAMKRALASIDSKLNQAKGWLRDPSASPGDAGEQAIRQILDEAGKVGELCAGKERREILGTCKMLGQMTDQVADLRARGQGSSPVAMQKAQQVSQGLDVLTAKVENAARKLEAMTNSKQSIAKKIDAAQNWLADPNGGPEGEEQIRGALAEARKIAELCDDPKERDDILRSLGEISALTSKLADLRRQGKGDSPEARALAKQVATALQNLQTKTNRAVANSRPAKAAVHLEGKIEQAQRWIDNPTVDDRGVGQAAIRGLVAEGHRLANVMMGPYRQDLLAKCDRVDQLTAQLADLAARGEGESPQARALASQLQDSLKDLKARMQEAMTQEVSDVFSDTTTPIKLLAVAATAPPDAPNREEVFDERAANFENHSGKLGATAEKAAAVGTANKSTVEGIQASVKTARELTPQVVSAARILLRNPGNQAAYEHFETMKNQWIDNVEKMTGLVDEAIDTKSLLDASEEAIKKDLDKCKVAMANIQPQMLVAGATSIARRANRILLVAKREVENSEDPKFREAVKAASDELSKTISPMVMDAKAVAGNISDPGLQKSFLDSGYRILGAVAKVREA
In the case of B1, in “SEC-MALS”, the “stoichiometry N” value was found to be 3.

In general, stoichiometry N refers to a count of units in the complex or per binding partner. For orientation: EC50 means the concentration that produces a half-maximal response. A lower EC50 goes with higher potency in that assay.
